In patent US20180282402A1 (ATYR PHARMA, published 2018):
No end group written: not given here.

Tests used:
[1] = target: T1, Neuropilin 2A (NRP2A, NM_003872.2) on cells (human, UniProt O60462 23-931); assay: Retrogenix cell microarray on HEK293 cells, sequential staining, 20 ug/ml test protein, AF647 anti-human IgG Fc detection
T1 construct: Used here for the Retrogenix HEK293 array and for the untagged NRP2v2 stably expressed on Expi293 cells; also called NRP2 variant 2; NRP2v2
Protocol: The detection antibody was used at screening concentrations of 2, 5, and 20 μg/ml, as more fully described below.
Primary hits (duplicate spots) were identified by analyzing fluorescence intensity in the AlexaFluor 647 and ZsGreen1 emission channels using the ImageQuant system, following standard fluorescent methodology. […] Additionally all vectors encoding all hits, plus control vectors, were spotted in duplicate on new slides, and used to reverse transfect human HEK293 cells as before.

[2] = target: T2, NRP2a-GFP fusion protein on HEK293T cells (human, UniProt O60462 23-931); assay: immunofluorescence microscopy (IN Cell Analyzer) on fixed HEK293T cells expressing NRP2v2-GFP, GFP-bright gate; Fc-HRS(2-60) titrated in 2-fold steps and complexed with anti-Fc-PE [panel A]
T2 construct: Transiently expressed; cells fixed before staining; also called NRP2v2-GFP; cell-expressed NRP2a; not shown: GFP (Origene RG220706, NM_003872 ORF clone)
Protocol: HEK293T cells previously transfected with NRP2v2-GFP were passed the night before staining to 96 well Greiner Clear flat bottomed Microplates pre-coated with collagen coating solution. Supernatants were removed and cells were washed 1 time with binding buffer. Cells were then fixed with 50 μL of 3.7% methanol-free formaldehyde for 20 minutes at room temperature. Cells were washed 2× with binding buffer and then blocked with 100 μL of blocking buffer for 1 hour at room temperature. The cells were then washed one time with binding buffer and then incubated with 50 μL of staining complex overnight at 4 degrees Celsius. Cells were then washed 3 times with binding buffer, and then nuclei were counter stained with […] Hoechst diluted in DPBS for 10 minutes at room temperature. The Hoechst stain was replaced with 1×PBS and subsequently read on an IN Cell Analyzer 2200. 20× images were acquired and analyzed using In Cell Analyzer 1000 Workstation software. Segmentation of the cell mask was achieved using the GFP channel, and the average PE signal intensity was determined within this mask above a threshold intensity of 5000 (termed GFP Bright cells).

[3] = target: T3, Rat NRP2-Fc-His (R&D Systems #567-N2) (rat, UniProt O35276 23-858, limits assumed); assay: SPR: 50 nM rat NRP2 as analyte over immobilized Fc-HRS(2-60) [panel A]
T3 construct: not shown: Fc and His tag
T3 sequence (looked up): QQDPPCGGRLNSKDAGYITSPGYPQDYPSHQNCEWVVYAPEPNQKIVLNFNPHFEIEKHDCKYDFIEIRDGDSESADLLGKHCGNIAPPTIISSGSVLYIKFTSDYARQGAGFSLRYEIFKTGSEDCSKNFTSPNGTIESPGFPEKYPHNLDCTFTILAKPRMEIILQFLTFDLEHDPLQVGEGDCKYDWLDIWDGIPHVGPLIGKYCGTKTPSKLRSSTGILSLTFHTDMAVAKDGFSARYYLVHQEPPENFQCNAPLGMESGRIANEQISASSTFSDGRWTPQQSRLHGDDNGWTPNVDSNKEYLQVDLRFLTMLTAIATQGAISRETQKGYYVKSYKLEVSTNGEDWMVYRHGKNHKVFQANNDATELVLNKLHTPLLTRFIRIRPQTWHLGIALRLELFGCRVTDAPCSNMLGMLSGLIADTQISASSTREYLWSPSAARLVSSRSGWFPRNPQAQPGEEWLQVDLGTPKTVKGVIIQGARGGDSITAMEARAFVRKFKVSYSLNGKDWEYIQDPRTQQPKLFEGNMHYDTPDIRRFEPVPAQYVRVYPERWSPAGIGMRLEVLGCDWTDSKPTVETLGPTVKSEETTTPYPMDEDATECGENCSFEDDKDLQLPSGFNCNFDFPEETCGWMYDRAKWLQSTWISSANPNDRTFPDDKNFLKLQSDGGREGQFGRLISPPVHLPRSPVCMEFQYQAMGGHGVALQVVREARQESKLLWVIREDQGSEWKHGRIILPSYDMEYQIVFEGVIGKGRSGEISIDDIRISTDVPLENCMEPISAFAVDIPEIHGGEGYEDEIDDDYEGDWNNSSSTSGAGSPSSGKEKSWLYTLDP

[4] = target: T4, Mouse PLXNA1-His (R&D Systems #4309-PA) (mouse, UniProt P70206 28-1242, limits assumed); assay: SPR: mouse Plexin A1 as analyte over immobilized Fc-HRS(2-60)
T4 construct: also called mouse Plexin A1; not shown: His tag

[5] = target: T5, NRP1-His (R&D Systems #3870-N1) (human, UniProt O14786-2 22-644); assay: SPR: NRP1 as analyte over immobilized Fc-HRS(2-60)
T5 construct: not shown: His tag

T4 sequence (P70206 28-1242 limits assumed): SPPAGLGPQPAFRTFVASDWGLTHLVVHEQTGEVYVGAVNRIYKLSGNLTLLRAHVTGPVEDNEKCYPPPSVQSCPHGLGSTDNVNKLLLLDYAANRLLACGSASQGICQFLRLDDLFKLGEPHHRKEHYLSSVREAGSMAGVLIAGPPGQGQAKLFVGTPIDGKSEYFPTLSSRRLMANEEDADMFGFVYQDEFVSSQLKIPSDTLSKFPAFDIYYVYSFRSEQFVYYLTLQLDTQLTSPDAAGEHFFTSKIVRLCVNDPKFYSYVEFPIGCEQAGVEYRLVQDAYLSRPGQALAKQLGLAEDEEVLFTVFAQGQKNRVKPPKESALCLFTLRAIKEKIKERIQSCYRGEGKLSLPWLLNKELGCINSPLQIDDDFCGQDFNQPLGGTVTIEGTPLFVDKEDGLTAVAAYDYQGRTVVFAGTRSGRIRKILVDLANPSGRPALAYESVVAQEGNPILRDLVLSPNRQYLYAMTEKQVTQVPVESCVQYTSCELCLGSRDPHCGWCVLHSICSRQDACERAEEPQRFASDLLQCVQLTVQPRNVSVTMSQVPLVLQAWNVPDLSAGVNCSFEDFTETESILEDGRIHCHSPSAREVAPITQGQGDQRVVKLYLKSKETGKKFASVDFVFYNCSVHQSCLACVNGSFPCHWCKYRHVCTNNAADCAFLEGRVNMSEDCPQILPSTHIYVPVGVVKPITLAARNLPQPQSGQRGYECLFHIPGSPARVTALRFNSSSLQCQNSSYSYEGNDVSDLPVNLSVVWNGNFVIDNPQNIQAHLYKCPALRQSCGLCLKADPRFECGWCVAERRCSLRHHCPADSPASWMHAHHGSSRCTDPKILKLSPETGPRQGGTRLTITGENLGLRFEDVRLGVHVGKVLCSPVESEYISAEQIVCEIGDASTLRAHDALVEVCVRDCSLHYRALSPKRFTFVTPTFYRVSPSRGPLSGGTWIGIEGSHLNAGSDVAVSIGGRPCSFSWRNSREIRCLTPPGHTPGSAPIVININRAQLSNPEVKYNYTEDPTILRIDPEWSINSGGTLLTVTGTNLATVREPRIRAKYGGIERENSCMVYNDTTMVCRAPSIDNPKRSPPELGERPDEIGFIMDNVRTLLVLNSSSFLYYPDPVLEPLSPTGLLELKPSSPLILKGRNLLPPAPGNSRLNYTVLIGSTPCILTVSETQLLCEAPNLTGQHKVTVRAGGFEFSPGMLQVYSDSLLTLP

binding result [1]: binds | binding result [2]: binds | binding result [3]: binds | binding result [4]: no binding (tested: 50 nM) | binding result [5]: no binding (tested: 50 nM)
B1: Fc-HRS(2-60) (Fc fusion)
chain: {human IgG Fc}-AERAALEELVKLQGERVRGLKQQKASAELIEEEVAKLLKLKAQLGPDESKQKFVLKTPK
modifications: also: linker to Fc not given here, biotinylated for flow assay (maleimide-PEG11-biotin, ~3.35 per molecule)
notes: Fc at the N-terminus, HRS residues 2-60 (WHEP domain) at the C-terminus; in the imaging assay pre-complexed with anti-Fc-PE; also called HRS-Fc fusion protein construct; ATYR1923; not shown: human IgG Fc region
